Experiment [1] concerns the target microtubules (taxol-stabilised, polymerised from PC-tubulin; tubulin alpha-beta heterodimer) (UniProt P02550). Kind of experiment: cryo-EM structure.
The target is the same in experiment [2]. Put plainly: co-sedimentation.

Chain of UniProt P02550 (P02550 whole entry, looked up, one chain of several): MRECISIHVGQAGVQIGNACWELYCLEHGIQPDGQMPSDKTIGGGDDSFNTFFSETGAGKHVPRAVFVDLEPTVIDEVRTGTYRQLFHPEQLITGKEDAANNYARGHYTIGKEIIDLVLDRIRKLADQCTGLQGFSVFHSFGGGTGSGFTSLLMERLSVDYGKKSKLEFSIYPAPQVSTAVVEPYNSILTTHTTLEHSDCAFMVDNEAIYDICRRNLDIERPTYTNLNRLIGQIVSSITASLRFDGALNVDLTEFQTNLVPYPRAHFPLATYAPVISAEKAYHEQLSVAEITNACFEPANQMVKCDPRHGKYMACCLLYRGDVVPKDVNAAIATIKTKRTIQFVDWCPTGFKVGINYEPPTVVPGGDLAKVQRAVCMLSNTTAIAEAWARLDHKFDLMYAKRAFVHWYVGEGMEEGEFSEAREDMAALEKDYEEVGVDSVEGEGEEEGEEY

“rat kinesin construct rK354 (from UniProt P56536 1-354) (domain or fragment)” had a stoichiometry N (kinesin head per tubulin heterodimer) in experiment [1] of 1.
For orientation: Kd means a measure of binding affinity in units of concentration. Take “rat kinesin construct rK379 (from UniProt P56536 1-379) (domain or fragment)”: in experiment [1], the stoichiometry N (head per tubulin dimer) was determined as 1 and the stoichiometry N (head per tubulin heterodimer) is 1. In experiment [2], this substance returned a Kd of 400 nM and a stoichiometry N (kinesin heads per tubulin dimer) of 1.1.

Values taken from paper PMC2148453.
